For test [1], the target named is T1, p116 Jak3 (endogenous, human thymocytes) (human, UniProt P52333 1-1124, limits assumed).
T1 sequence (looked up): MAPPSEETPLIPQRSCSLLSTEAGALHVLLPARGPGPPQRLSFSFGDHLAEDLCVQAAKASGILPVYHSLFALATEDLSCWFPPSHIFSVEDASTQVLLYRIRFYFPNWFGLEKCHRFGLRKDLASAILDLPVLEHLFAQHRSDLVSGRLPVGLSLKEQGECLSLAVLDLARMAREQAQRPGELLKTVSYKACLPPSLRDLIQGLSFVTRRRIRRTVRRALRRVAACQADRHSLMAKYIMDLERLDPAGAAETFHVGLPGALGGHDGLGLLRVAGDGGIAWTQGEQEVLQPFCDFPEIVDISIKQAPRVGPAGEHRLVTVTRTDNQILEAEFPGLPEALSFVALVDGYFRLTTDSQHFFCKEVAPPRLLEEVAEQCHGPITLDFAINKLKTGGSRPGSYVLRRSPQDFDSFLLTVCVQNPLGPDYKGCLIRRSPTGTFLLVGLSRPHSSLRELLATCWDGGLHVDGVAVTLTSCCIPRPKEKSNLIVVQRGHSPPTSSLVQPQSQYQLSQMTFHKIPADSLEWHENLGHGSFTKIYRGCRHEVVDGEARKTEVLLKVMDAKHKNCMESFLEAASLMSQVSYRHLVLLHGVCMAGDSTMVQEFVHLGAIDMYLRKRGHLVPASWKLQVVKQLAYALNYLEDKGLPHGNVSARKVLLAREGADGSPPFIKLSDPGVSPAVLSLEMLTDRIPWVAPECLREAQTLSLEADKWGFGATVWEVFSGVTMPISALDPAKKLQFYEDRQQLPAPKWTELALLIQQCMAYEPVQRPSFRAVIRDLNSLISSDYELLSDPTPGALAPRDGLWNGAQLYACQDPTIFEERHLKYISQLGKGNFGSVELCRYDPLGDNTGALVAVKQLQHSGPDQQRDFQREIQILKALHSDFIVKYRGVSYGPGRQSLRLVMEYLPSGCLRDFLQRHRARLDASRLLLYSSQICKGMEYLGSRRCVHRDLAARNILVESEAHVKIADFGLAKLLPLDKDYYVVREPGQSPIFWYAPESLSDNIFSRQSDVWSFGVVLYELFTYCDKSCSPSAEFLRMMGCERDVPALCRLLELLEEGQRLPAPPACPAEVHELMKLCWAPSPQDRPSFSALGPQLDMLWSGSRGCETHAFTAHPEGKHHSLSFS
As to the kind of experiment: western blot of Lyp immunoprecipitates from anti-CD3 stimulated human thymocytes. As for the experimental part:
(§1) (A) Lyp immunoprecipitates from thymocytes (80×10⁶ cells) stimulated with anti-CD3 were blotted with antiphsophotyrosine. […] Lyp protein loading was quantitated by anti-Lyp western blot after stripping. […] (C) Lyp1 was transfected into COS-7 cells and Cbl immunoprecipitates prepared from these and untransfected cells. Western blotting was performed with Lyp antibodies. The position of Lyp is indicted by an arrow. Cbl immunoprecipitates were also prepared and blotted with anti-phosphotyrosine (D), and then anti-Cbl after stripping.
(§2) One of the earliest events following TCR stimulation of T cells is the induction of tyrosine phosphorylation. In order to determine whether Lyp played a role in TCR signalling, human thymocytes were stimulated with anti-CD3 for various periods of time, Lyp immunoprecipitated and blotted with anti-phosphotyrosine. […] Once activated, the phosphorylation level of this protein remained constant over a period of 20 minutes. […] This interaction was also observed in the mature T cell line Jurkat (not shown) and further confirmed by transfection of Lyp1 into COS-7 cells and examining its association with the endogenous Cbl protein (FIG. 13C).
In general terms: Immunoblotting shows a protein as a band on a membrane.

The target of test [2] is p125Fak (human, UniProt Q05397 2-1052, limits assumed). The description is as above. As for the experimental part: as §1, §2
Sequence of p125Fak (Q05397 2-1052 limits assumed): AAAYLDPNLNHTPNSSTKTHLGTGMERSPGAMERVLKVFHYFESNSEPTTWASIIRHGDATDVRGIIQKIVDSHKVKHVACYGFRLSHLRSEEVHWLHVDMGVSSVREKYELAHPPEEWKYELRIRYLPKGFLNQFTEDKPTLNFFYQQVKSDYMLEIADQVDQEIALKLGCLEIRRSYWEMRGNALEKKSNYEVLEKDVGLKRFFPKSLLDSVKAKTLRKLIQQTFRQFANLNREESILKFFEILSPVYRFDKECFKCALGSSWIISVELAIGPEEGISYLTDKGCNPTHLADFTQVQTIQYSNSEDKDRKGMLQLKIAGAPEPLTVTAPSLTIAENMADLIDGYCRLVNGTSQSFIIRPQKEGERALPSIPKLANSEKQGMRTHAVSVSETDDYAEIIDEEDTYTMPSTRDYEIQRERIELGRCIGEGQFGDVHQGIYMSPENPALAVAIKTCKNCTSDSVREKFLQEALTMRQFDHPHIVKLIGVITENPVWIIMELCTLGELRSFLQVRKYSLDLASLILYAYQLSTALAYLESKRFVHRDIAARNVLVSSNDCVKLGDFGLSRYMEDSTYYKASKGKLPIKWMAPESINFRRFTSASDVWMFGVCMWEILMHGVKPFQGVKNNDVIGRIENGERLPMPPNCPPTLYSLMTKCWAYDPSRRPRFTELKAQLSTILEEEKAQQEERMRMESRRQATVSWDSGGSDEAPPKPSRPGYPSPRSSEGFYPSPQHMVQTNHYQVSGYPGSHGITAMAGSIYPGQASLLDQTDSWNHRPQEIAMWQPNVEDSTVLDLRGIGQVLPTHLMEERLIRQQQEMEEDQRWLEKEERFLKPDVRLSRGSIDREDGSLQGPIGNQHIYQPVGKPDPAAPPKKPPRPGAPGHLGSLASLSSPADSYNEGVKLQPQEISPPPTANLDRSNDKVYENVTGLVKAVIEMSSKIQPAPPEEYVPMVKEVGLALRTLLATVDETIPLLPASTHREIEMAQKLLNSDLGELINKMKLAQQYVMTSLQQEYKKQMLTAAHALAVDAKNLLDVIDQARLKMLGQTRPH

We go through one molecule from US20040006777A1 (HSC RESEARCH AND DEVELOPMENT LIMITED PARTNERSHIP, published 2004).

B1: Lyp1 (human lymphoid protein tyrosine phosphatase, 105 kD) (enzyme)
chain: MDQREILQKFLDEAQSKKITKEEFANEFLKLKRQSTKYKADKTYPTTVAENAKNIKKNRYKDILPYDYSRVELSLITSDEDSSYINANFIKGVYGPKAYIATQGPLSTTLLDFWRMIWEYSVLIIVMACMEYEMGKKKCERYWAEPGEMQLEFGPFSVSCEAEKRKSDYIIRTLKVKFNSETRTIYQFHYKNWPDHDVPSSIDPILELIWDVRCYQEDDSVPICIHCSAGCGRTGVICAIVDYTWMLLKDGIIPENFSVFSLIREMRTQRPSLVQTQEQYELVYNAVLELFKRQMDVIRDKHSGTESQAKHCIPEKNHTLQADSYSPNLPKSTTKAAKMMNQQRTKMEIKESSSFDFRTSEISAKEELVLHPAKSSTSFDFLELNYSFDKNADTTMKWQTKAFPIVGEPLQKHQSLDLGSLLFEGCSNSKPVNAAGRYFNSKVPITRTKSTPFELIQQRETKEVDSKENFSYLESQPHDSCFVEMQAQKVMHVSSAELNYSLPYDSKHQIRNASNVKHHDSSALGVYSYIPLVENPYFSSWPPSGTSSKMSLDLPEKQDGTVFPSSLLPTSSTSLFSYYNSHSSLSLNSPTNISSLLNQESAVLATAPRIDDEIPPPLPVRTPESFIVVEEAGEFSPNVPKSLSSAVKVKIGTSLEWGGTSEPKKFDDSVILRPSKSVKLRSPKSELHQDRSSPPPPLPERTLESFFLADEDCMQAQSIETYSTSYPDTMENSTSSKQTLKTPGKSFTRSKSLKILRNMKKSICNSCPPNKPAESVQSNNSSSFLNFGFANRFSKPKGPRNPPPTWNI
notes: also called native Lyp1; pcDNA3-Lyp1
Regarding B1, the binding result in test [1] and in test [2] was “no binding” throughout.
